{
  "source": "patent US20050282254",
  "proteins": {"B1": {"name": "Pro39 (C-terminal cysteine protease domain of Semliki Forest virus non-structural protein nsP2) (protein)", "chain": "KVIEGPAAPVDAFQNKANVCWAKSLVPVLDTAGIRLTAEEWSTIITAFKEDRAYSPVVALNEICTKYYGVDLDSGLFSAPKVSLYYENNHWDNRPGGRMYGFNAATAARLEARHTFLKGQWHTGKQAVIAERKIQPLSVLDNVIPINRRLPHALVAEYKTVKGSRVEWLVNKVRGYHVLLVSEYNLALPRRRVTWLSPLNVTGADRCYDLSLGLPADAGRFDLVFVNIHTEFRIHHYQQCVDHAMKLQMLGGDALRLLKPGGSLLMRAYGYADKISEAVVSSLSRKFSSARVLRPDCVTSNTEVFLLFSNFDNGKRPSTLHQMNTKLSAVYAGEAMHTAGC"}},
  "key": {"[1]": {"molecular_target": "recombinant protein of full size thioredoxine domain, protease recognition site and truncated C-terminal region (40 aa residues) of thioredoxin [thioredoxin: P0AA25]"}, "[2]": {"molecular_target": "T1, substrate with 6/S5 site", "T1 chain": "LGRAGASIFSS"}, "[3]": {"molecular_target": "T2, substrate with 6/R5 site", "T2 chain": "LGRAGARIFSS"}, "[4]": {"molecular_target": "T3, substrate with 6/G5 site", "T3 chain": "LGRAGAGIFSS"}},
  "data": [
    {"protein": "B1", "values": [
      {"measurement": "cleavage efficiency, Pro39, SDS-PAGE", "setting": "[1]", "result": "non structured Ter substrate is poorly cleaved while Trx substrate is effectively cleaved"},
      {"measurement": "cleavage specificity, mass-spectrometry", "setting": "[2]", "result": "cleavage specificity was preserved for all of these modified recognition sites (demonstrated by mass-spectrometry)"},
      {"measurement": "cleavage specificity, mass-spectrometry", "setting": "[3]", "result": "cleavage specificity was preserved for all of these modified recognition sites (demonstrated by mass-spectrometry)"},
      {"measurement": "cleavage specificity, mass-spectrometry", "setting": "[4]", "result": "cleavage specificity was preserved for all of these modified recognition sites (demonstrated by mass-spectrometry)"}
    ]}
  ]
}
